{
  "source": "paper PMC5291249",
  "about": "“Two p53 tetramers bind one consensus DNA response element”",
  "binders": {"B1": {"name": "DNA1 (dsDNA)", "DNA 1": "AGACATGCCTAGACATGCCT", "DNA 2": "AGGCATGTCTAGGCATGTCT"}, "B2": {"name": "DNA6 (no spacer) (dsDNA)", "DNA 1": "ATGAAATAGACATGCCTAGACATGCCTGAATTAAT", "DNA 2": "ATTAATTCAGGCATGTCTAGGCATGTCTATTTCAT"}, "B3": {"name": "gadd45 RE (Table 1) (dsDNA)", "DNA 1": "GAACATGTCTAAGCATGCTG", "DNA 2": "CAGCATGCTTAGACATGTTC"}, "B4": {"name": "RGC RE (dsDNA)", "DNA 1": "TGCCTTGCCTGGACTTGCCTGGCCTTGCCT", "DNA 2": "AGGCAAGGCCAGGCAAGTTCAGGCAAGGCA"}, "B5": {"name": "MCK RE (dsDNA)", "DNA 1": "TGGCAAGCCTATGACATGGCCGGGGCCTGCCT", "DNA 2": "AGGCAGGCCCCGGCCATGTCATAGGCTTGCCA"}, "B6": {"name": "bax RE (dsDNA)", "DNA 1": "GGGCTATATTTCACAAGTTAGAGACAAGCCTGGGCGTGGGCTATATT", "DNA 2": "AATATAGCCCACGCCCAGGCTTGTCTCTAACTTGTGAAATATAGCCC"}, "B7": {"name": "p21 RE (dsDNA)", "DNA 1": "GAACATGTCCCAACATGTTG", "DNA 2": "CAACATGTTGGGACATGTTC"}, "B8": {"name": "DNA21 (dsDNA)", "DNA 1": "AGCATTGGCTTTCTGGCCATCAGAGACATGCCTAGACATGCCTAGCTCTGGCATAGAAGAGGCGCT", "DNA 2": "AGCGCCTCTTCTATGCCAGAGCTAGGCATGTCTAGGCATGTCTCTGATGGCCAGAAAGCCAATGCT"}, "B9": {"name": "DNA31 (1 bp spacer) (dsDNA)", "DNA 1": "AGCATTGGCTTTCTGGCCATCAGAGACATGCCTGAGACATGCCTAGCTCTGGCATAGAAGAGGCGCT", "DNA 2": "AGCGCCTCTTCTATGCCAGAGCTAGGCATGTCTCAGGCATGTCTCTGATGGCCAGAAAGCCAATGCT"}, "B10": {"name": "Tigar_NS (spacer removed) (dsDNA)", "DNA 1": "B8 DNA 1 with C31T, T33C, A38T, C41T", "DNA 2": "B8 DNA 2 with G26A, T29A, A34G, G36A"}, "B11": {"name": "gadd45_0 (dsDNA)", "DNA 1": "ATGAAATGAACATGTCTAGGCATGCTGAATTAAT", "DNA 2": "ATTAATTCAGCATGCCTAGACATGTTCATTTCAT"}, "B12": {"name": "gadd45_1 (dsDNA)", "DNA 1": "ATGAAATGAACATGTCTGAGGCATGCTGAATTAA", "DNA 2": "TTAATTCAGCATGCCTCAGACATGTTCATTTCAT"}, "B13": {"name": "non-specific control DNA (20 bp) (dsDNA)", "DNA 1": "TCGATCCTCTATGAATTAT", "DNA 2": "ATAATTCATAGAGGATCGA"}},
  "key": {"[1]": {"molecular_target": "T1, murine p53 (mp53) (mouse, UniProt P02340 1-390)", "experiment": "EMSA (GA cross-linked SDS-PAGE); multiple tetramers; 25 mM Tris-HCl pH 7.5, 2 mM DTT, 100 mM NaCl, 1 mM ADP, 5 mM MgCl2 (or 20 mM HEPES pH 7.5, 10 mM ADP), 25 C, then 0.025% glutaraldehyde 20 min; 'weaker' refers", "details": "protein: recombinant; chain copies: 4; blunt"}, "[2]": {"molecular_target": "T2, human p53 (hp53) (Homo sapiens, UniProt P04637 1-393)", "experiment": "EMSA (GA cross-linked SDS-PAGE); multiple tetramers; 25 mM Tris-HCl pH 7.5, 2 mM DTT, 100 mM NaCl, 1 mM ADP, 5 mM MgCl2 (or 20 mM HEPES pH 7.5, 10 mM ADP), 25 C, then 0.025% glutaraldehyde 20 min; 'weaker' refers", "details": "protein: recombinant; chain copies: 4; blunt"}, "[3]": {"molecular_target": "T1, murine p53 (mp53)", "experiment": "EMSA (GA cross-linked SDS-PAGE); 25 mM Tris-HCl pH 7.5, 2 mM DTT, 100 mM NaCl, 1 mM ADP, 5 mM MgCl2 (or 20 mM HEPES pH 7.5, 10 mM ADP), 25 C, then 0.025% glutaraldehyde 20 min; 'weaker' refers", "details": "protein: recombinant, chain copies: 4"}, "[4]": {"molecular_target": "T2, human p53 (hp53)", "experiment": "EMSA (GA cross-linked SDS-PAGE); 25 mM Tris-HCl pH 7.5, 2 mM DTT, 100 mM NaCl, 1 mM ADP, 5 mM MgCl2 (or 20 mM HEPES pH 7.5, 10 mM ADP), 25 C, then 0.025% glutaraldehyde 20 min; 'weaker' refers", "details": "protein: recombinant, chain copies: 4"}, "[5]": {"molecular_target": "mp53 R273H (mouse, UniProt P02340 1-390, R270H)", "experiment": "EMSA (GA cross-linked, IR dye); 25 mM Tris-HCl pH 7.5, 2 mM DTT, 100 mM NaCl, 1 mM ADP, 5 mM MgCl2 (or 20 mM HEPES pH 7.5, 10 mM ADP), 25 C, then 0.025% glutaraldehyde 20 min; 'weaker' refers", "details": "protein: recombinant, chain copies: 4"}, "[6]": {"molecular_target": "T1, murine p53 (mp53)", "experiment": "EMSA (GA cross-linked SDS-PAGE); among most efficient; 25 mM Tris-HCl pH 7.5, 2 mM DTT, 100 mM NaCl, 1 mM ADP, 5 mM MgCl2 (or 20 mM HEPES pH 7.5, 10 mM ADP), 25 C, then 0.025% glutaraldehyde 20 min; 'weaker' refers", "details": "protein: recombinant; chain copies: 4"}, "[7]": {"molecular_target": "T1, murine p53 (mp53)", "experiment": "EMSA (GA cross-linked SDS-PAGE); increased vs 2 bp spacer; 25 mM Tris-HCl pH 7.5, 2 mM DTT, 100 mM NaCl, 1 mM ADP, 5 mM MgCl2 (or 20 mM HEPES pH 7.5, 10 mM ADP), 25 C, then 0.025% glutaraldehyde 20 min; 'weaker' refers", "details": "protein: recombinant; chain copies: 4; blunt"}, "[8]": {"molecular_target": "T2, human p53 (hp53)", "experiment": "EMSA (GA cross-linked SDS-PAGE); increased vs 2 bp spacer; 25 mM Tris-HCl pH 7.5, 2 mM DTT, 100 mM NaCl, 1 mM ADP, 5 mM MgCl2 (or 20 mM HEPES pH 7.5, 10 mM ADP), 25 C, then 0.025% glutaraldehyde 20 min; 'weaker' refers", "details": "protein: recombinant; chain copies: 4; blunt"}, "[9]": {"molecular_target": "mp53Δ30 (mouse, UniProt P02340 1-360)", "experiment": "EMSA (GA cross-linked, IR dye); 25 mM Tris-HCl pH 7.5, 2 mM DTT, 100 mM NaCl, 1 mM ADP, 5 mM MgCl2 (or 20 mM HEPES pH 7.5, 10 mM ADP), 25 C, then 0.025% glutaraldehyde 20 min; 'weaker' refers", "details": "protein: recombinant; chain copies: 4; label: 5' IR800 both strands; blunt"}, "[10]": {"molecular_target": "T1, murine p53 (mp53)", "experiment": "EMSA (GA cross-linked, IR dye); 25 mM Tris-HCl pH 7.5, 2 mM DTT, 100 mM NaCl, 1 mM ADP, 5 mM MgCl2 (or 20 mM HEPES pH 7.5, 10 mM ADP), 25 C, then 0.025% glutaraldehyde 20 min; 'weaker' refers", "details": "protein: recombinant; chain copies: 4; label: 5' IR800 both strands; blunt"}, "[11]": {"molecular_target": "T2, human p53 (hp53)", "experiment": "EMSA (GA cross-linked, IR dye); 25 mM Tris-HCl pH 7.5, 2 mM DTT, 100 mM NaCl, 1 mM ADP, 5 mM MgCl2 (or 20 mM HEPES pH 7.5, 10 mM ADP), 25 C, then 0.025% glutaraldehyde 20 min; 'weaker' refers", "details": "protein: recombinant; chain copies: 4; label: 5' IR800 both strands; blunt"}},
  "note": "Where a chain is given by its changes, count along the chain named.",
  "data": [
    {"binder": "B1", "values": [
      {"measurement": "binding result", "setting": "[1]", "result": "binds"},
      {"measurement": "binding result", "setting": "[2]", "result": "binds"}
    ]},
    {"binder": "B2", "values": [
      {"measurement": "binding result", "setting": "[3]", "result": "binds"},
      {"measurement": "binding result", "setting": "[4]", "result": "binds"}
    ]},
    {"binder": "B3", "values": [
      {"measurement": "binding result", "setting": "[3]", "result": "binds"},
      {"measurement": "binding result", "setting": "[4]", "result": "binds"},
      {"measurement": "binding result", "setting": "[5]", "result": "no binding"}
    ]},
    {"binder": "B4", "values": [
      {"measurement": "binding result", "setting": "[4]", "result": "binds"}
    ]},
    {"binder": "B5", "values": [
      {"measurement": "binding result", "setting": "[4]", "result": "binds"}
    ]},
    {"binder": "B6", "values": [
      {"measurement": "binding result", "setting": "[4]", "result": "binds"},
      {"measurement": "binding result", "setting": "[6]", "result": "binds"}
    ]},
    {"binder": "B7", "values": [
      {"measurement": "binding result", "setting": "[3]", "result": "binds"}
    ]},
    {"binder": "B8", "values": [
      {"measurement": "binding result", "setting": "[4]; blunt", "result": "binds"},
      {"measurement": "binding result", "setting": "[1]", "result": "binds"}
    ]},
    {"binder": "B9", "values": [
      {"measurement": "binding result", "setting": "[3]; blunt", "result": "binds"},
      {"measurement": "binding result", "setting": "[4]; blunt", "result": "binds"}
    ]},
    {"binder": "B10", "values": [
      {"measurement": "binding result", "setting": "[7]", "result": "binds"},
      {"measurement": "binding result", "setting": "[8]", "result": "binds"}
    ]},
    {"binder": "B11", "values": [
      {"measurement": "binding result", "setting": "[9]", "result": "binds"},
      {"measurement": "binding result", "setting": "[10]", "result": "binds"},
      {"measurement": "binding result", "setting": "[11]", "result": "binds"}
    ]},
    {"binder": "B12", "values": [
      {"measurement": "binding result", "setting": "[10]", "result": "binds"},
      {"measurement": "binding result", "setting": "[11]", "result": "binds"}
    ]},
    {"binder": "B13", "values": [
      {"measurement": "binding result", "setting": "[5]; label: 5' IR700 both strands", "result": "no binding"}
    ]}
  ]
}
